Reference: patent EP2341079A1 (Institut Pasteur, dated 2011)

Experiments:
streptavidin = streptavidin (UniProt P22629 37-163, limits assumed); assay: ELISA (data not shown)
neutravidin = neutravidin (UniProt P02701 25-152); assay: ELISA (data not shown)
[1] = target: T1, hIgG (IgG pool from human serum containing hIgG1, hIgG2, hIgG3, hIgG4; Fluka reference number 56834); assay: SPR (BIAcore 3000), hIgG on CM5 chip, binder injected, 1:1 global fit
T1 construct: Polyclonal mixture from human serum; also called human IgG; Immunoglobulin G from human serum

[2] = target: T2, hIgG1 (Sigma-Aldrich reference number I5029) (human, UniProt P01857-1 1-330 = IgG part); assay: SPR, hIgG1 immobilised at low density, C3 injected 16-1000 nM, global fit (Fig. 6)
T2 construct: Purified subclass, bought; also called Human IgG1; human IgG1 subclass
T2 sequence (P01857 other isoform, or with tags, fused parts or gaps): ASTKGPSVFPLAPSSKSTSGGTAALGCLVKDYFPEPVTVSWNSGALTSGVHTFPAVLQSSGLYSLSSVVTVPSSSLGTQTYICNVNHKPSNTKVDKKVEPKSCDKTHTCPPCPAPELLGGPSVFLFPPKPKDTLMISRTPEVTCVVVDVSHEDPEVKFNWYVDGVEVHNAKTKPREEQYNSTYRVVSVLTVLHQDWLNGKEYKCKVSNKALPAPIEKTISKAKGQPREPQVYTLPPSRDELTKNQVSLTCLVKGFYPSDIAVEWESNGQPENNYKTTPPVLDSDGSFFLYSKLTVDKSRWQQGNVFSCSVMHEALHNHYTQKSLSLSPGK

Sequence of neutravidin (P02701 25-152): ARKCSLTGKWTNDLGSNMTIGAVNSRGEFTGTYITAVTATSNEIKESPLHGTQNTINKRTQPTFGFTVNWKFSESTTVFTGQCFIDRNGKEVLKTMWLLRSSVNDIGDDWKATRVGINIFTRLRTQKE
Sequence of streptavidin (P22629 37-163 limits assumed): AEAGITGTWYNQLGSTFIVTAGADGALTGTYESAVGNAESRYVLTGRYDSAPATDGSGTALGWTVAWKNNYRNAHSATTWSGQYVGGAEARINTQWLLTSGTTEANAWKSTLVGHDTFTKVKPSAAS

B1: C3 binder (designed binder)
chain: SVKVKFLLNGEEKEVDTSKIRDVCRQGKNVKFLYNDNGKYGAGNVDEKDAPKELLDMLARAEREKK
notes: Sac7d variant made with a His-tag in E. coli; monomeric by gel filtration; Used free, biotinylated on a streptavidin chip, labelled with AlexaFluor 680, or NHS-coupled to agarose, as said under assay; also called clone C3; not shown: RGS-(His)6 tag from vector pFP1001 (pQE30 derivative)
Q: Does B1 bind (streptavidin)?
A: no binding

Q: Does B1 bind (neutravidin)?
A: no binding

Q: And the Kd [1]?
A: 74 nM

Q: What about the koff [1] of the same binder?
A: 0.066 s⁻¹

Q: What about the kon [1] of the same binder?
A: 890000 M⁻¹ s⁻¹

Q: What about the Kd [2] of the same binder?
A: 94 nM

Q: What about the koff [2] of the same binder?
A: 0.051 s⁻¹

Q: And the kon [2]?
A: 540000 M⁻¹ s⁻¹
